Experimental data reported in KR20210097819A (dated 2021).

Target: T1, human TNFα N-his trimer (human, UniProt P01375 77-233)
T1 construct: Captured on an NTA sensor chip through the N-terminal His tag for Biacore; also called His-tagged TNF (made by ESBATech); not shown: N-terminal His tag
Assay: SPR (BIAcore T100), His-tagged TNFα captured on an NTA chip, scFv as analyte

T1 sequence (P01375 77-233 limits assumed): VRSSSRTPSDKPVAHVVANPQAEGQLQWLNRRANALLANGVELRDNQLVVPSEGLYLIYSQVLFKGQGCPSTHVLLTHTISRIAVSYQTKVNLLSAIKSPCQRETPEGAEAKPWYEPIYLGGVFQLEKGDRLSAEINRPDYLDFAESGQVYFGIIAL

- Kd: 0.25 nM
B1: EP43max (scFv)
chain: EIVMTQSPSTLSASVGDRVIIKCQASQSISDWLAWYQQKPGKAPKLLIYGASRLASGFPSRFSGSGSGAEFTLTISGLEPADFATYYCQQGWSDSYVDNLFGQGTKLTVLGGGGGSGGGGSGGGGSGGGGSEVQLVESGGGLVQPGGSLRLSCTVSGFSLSSGAMSWVRQAPGKGLEWVGVIISSGATYYASWAKGRFTISKDTSKNTVYLQMNSLRAEDTAVYYCARGGPDDSNSMGTFDPWGQGTLVTVSS
